Values of other authors in article PMC8199105.

Biological target: Albumin (UniProt P02768)
Assay: surface plasmon resonance

Cubilin (from UniProt O70244)
Kd: 630 nM
